From article PMC12785155, “Phytochrome B stabilizes the KNOX transcription factor BP/KNAT1 to promote light-initiated seed germination in Arabidopsis thaliana”

T1: BP/KNAT1 (B…US) (Arabidopsis thaliana, UniProt P46639 1-398)
T1 sequence: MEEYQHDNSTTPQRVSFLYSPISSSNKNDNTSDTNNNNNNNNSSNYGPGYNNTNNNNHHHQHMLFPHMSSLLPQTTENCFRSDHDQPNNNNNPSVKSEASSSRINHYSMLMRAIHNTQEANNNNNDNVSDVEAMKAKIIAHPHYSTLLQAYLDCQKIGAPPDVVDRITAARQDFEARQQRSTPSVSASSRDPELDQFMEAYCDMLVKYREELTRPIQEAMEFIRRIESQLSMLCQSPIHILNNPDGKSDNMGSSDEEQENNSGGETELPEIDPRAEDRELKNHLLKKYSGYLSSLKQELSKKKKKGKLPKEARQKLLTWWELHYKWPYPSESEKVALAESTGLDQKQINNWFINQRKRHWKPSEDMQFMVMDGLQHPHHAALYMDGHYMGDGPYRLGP


Columns and labels:
BP/KNAT1 (B…US) [1] = biological target: T1, BP/KNAT1 (B…US); test: EMSA; excess unlabeled probe reduced binding; LightShift Chemiluminescent EMSA kit; 0.5 ug BP-His with biotin-labeled probe, 20 min at room temperature, 6% polyacrylamide gel; buffer, salt and pH not stated; conditions: protein: recombinant; tags: His (pET32a, per Methods); Results text says BP-MBP; label: biotin (both strands, per oligo names); blunt
BP/KNAT1 (B…US) [2] = biological target: T1, BP/KNAT1 (B…US); test: competition; excess unlabeled mutant vs biotin-labeled NCED6 probe; did not effectively reduce binding; LightShift Chemiluminescent EMSA kit; 0.5 ug BP-His with biotin-labeled probe, 20 min at room temperature, 6% polyacrylamide gel; buffer, salt and pH not stated; conditions: protein: recombinant; tags: His (pET32a, per Methods); Results text says BP-MBP; blunt
BP/KNAT1 (B…US) [3] = biological target: T1, BP/KNAT1 (B…US); test: competition; excess unlabeled mutant vs biotin-labeled NCED9 probe; did not effectively reduce binding; LightShift Chemiluminescent EMSA kit; 0.5 ug BP-His with biotin-labeled probe, 20 min at room temperature, 6% polyacrylamide gel; buffer, salt and pH not stated; conditions: protein: recombinant; tags: His (pET32a, per Methods); Results text says BP-MBP; blunt

Binder	binding result (BP/KNAT1 (B…US) [1])	other results
NCED6 probe (dsDNA) DNA 1: TAGCCGGACATCATTTATTTGACGGTGACGGAATGATTCACGCCGTTA DNA 2: TAACGGCGTGAATCATTCCGTCACCGTCAAATAAATGATGTCCGGCTA	binds	–
NCED6-M mutant competitor (dsDNA) DNA 1: TAGCCGGACATCATTTATTAAAAGGAAAAGGAATGATTCACGCCGTTA DNA 2: TAACGGCGTGAATCATTCCTTTTCCTTTTAATAAATGATGTCCGGCTA	–	binding result (BP/KNAT1 (B…US) [2]): no binding
NCED9 probe (dsDNA) DNA 1: CATTACACTTTTTTAAAATGACTGGAATGCATGACGTTTGGGCAC DNA 2: GTGCCCAAACGTCATGCATTCCAGTCATTTTAAAAAAGTGTAATG	binds	–
NCED9-M mutant competitor (dsDNA) DNA 1: CATTACACTTTTTTAAAAAAAATGGAATGCAAAAAGTTTGGGCAC DNA 2: GTGCCCAAACTTTTTGCATTCCATTTTTTTTAAAAAAGTGTAATG	–	binding result (BP/KNAT1 (B…US) [3]): no binding
